The values that follow come from patent publication US20160068844A1 (Sanofi, published 2016).

For one test, the target named is T1, mouse IL17A (mouse, UniProt Q62386 26-158).
T1 construct: also called recombinant mouse Il17a
T1 sequence (looked up): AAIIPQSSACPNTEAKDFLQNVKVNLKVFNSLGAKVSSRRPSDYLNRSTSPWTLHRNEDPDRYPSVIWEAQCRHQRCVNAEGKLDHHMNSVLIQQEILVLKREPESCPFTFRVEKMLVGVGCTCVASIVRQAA
The test can be described thus: ELISA, plates coated with IL17A, serial dilutions of sIL17R, detection with biotinylated anti-IL17RA and streptavidin-HRP. As to the method: (§1) For sIL17R binding to IL17A, ELISA plates were coated with 100 μg/ml human IL17A or mouse IL17A overnight, then blocked with 1% BSA. Serial two-fold dilutions of sIL17R were added in triplicate to the plate and incubated for 1 h at 37° C. Unbound receptor was washed from the plate in an ELISA plate washer. 100 μl biotinylated anti-IL17RA (1 μg/ml) was added to each well and incubated 1 h at room temperature and excess antibody was washed away. Each well was incubated with streptavidin-HRP conjugate and washed. Bound HRP was measured by incubation with TMBD substrate for 20 minutes followed by addition of acid stop solution. OD was measured at 450 nm.
A general note: In an ELISA, binding on a coated surface is turned into a signal by an enzyme label.

In another test the target is T2, human IL17A (human, UniProt Q16552 24-155).
T2 construct: also called interleukin-17A
T2 sequence (looked up): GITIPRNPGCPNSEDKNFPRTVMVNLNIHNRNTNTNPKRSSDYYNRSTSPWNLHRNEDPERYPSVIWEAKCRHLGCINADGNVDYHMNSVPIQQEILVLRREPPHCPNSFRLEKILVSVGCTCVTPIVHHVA
Described as above. The method, then: as §1

B1: sIL17R-9gly-CH3 (soluble human IL-17 receptor A linked by nine glycines to the CH3 domain of human IgG1) (Fc fusion)
chain: SLRLLDHRALVCSQPGLNCTVKNSTCLDDSWIHPRNLTPSSPKDLQIQLHFAHTQQGDLFPVAHIEWTLQTDASILYLEGAELSVLQLNTNERLCVRFEFLSKLRHHHRRWRFTFSHFVVDPDQEYEVTVHHLPKPIPDGDPNHQSKNFLVPDCEHARMKVTTPCMSSGSLWDPNITVETLEAHQLRVSFTLWNESTHYQILLTSFPHMENHSCFEHMHHIPAPRPEEFHQRSNVTLTLRNLKGCCRHQVQIQPFFSSCLNDCLRHSATVSCPEMPDTPEPIPDYMTGGGGGGGGGQPREPQVYTLPPSRDELTKNQVSLTCLVKGFYPSDIAVEWESNGQPENNYKTTPPVLDSDGSFFLYSKLTVDKSRWQQGNVFSCSVMHEALHNHYTQKSLSLSPG
notes: also called sIL17RA-9gly-CH3; sIL17R-9G-CH3
With B1, the binding result with mouse IL17A and with human IL17A was “binds” throughout.
